Data taken from the supplement of paper PMC5998384.

Columns and labels:
[1] = tested on: HeLa Kyoto; assay: solubility change mitosis vs G1/S (difference of NP-40 vs SDS log2 ratios) (log2 ratio difference); higher = more soluble in mitosis
[2] = tested on: HeLa Kyoto; assay: solubility in G1/S (NP-40 vs SDS abundance) (log2 ratio); higher = more soluble; conditions: cell cycle stage: G1/S
[3] = tested on: HeLa Kyoto; assay: thermal stability score vs G1/S (z-score of summed log2 fold changes over temperatures); higher = more thermally stable than in G1/S
[4] = tested on: HeLa Kyoto; assay: melting temperature (median over replicates), in situ; higher = more thermally stable
[5] = cell cycle stage: early G1 (4.5 h after nocodazole release)
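Wherever melting temperature (median over replicates), in situ is given: HeLa Kyoto cells synchronized by double thymidine or nocodazole block, proteins quantified by TMT10plex mass spectrometry, three independent biological replicates.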
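Wherever solubility change mitosis vs G1/S (difference of NP-40 vs SDS log2 ratios) is given: synchronized HeLa Kyoto cells (double thymidine block for G1/S, nocodazole release for mitosis), protein amounts in NP-40 versus SDS lysates quantified by mass spectrometry, three biological replicates.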
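Wherever solubility in G1/S (NP-40 vs SDS abundance) is given: HeLa Kyoto cells arrested at G1/S by double thymidine block, proteins quantified by TMT10plex mass spectrometry in mild NP-40 versus SDS extracts, three biological replicates.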
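Wherever thermal stability score vs G1/S (z-score of summed log2 fold changes over temperatures) is given: synchronized HeLa Kyoto cells, proteins quantified by TMT10plex mass spectrometry, three biological replicates, mitosis taken 0.5 h after nocodazole release, G1/S directly after double thymidine block.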

Row | Substance | solubility change mitosis (log2) [1] | solubility in G1/S (log2) [2] | thermal stability score [3, 5] | thermal stability score ([3]; cell cycle stage: mitosis) | melting temperature ([4]; cell cycle stage: G1/S) [°C] | melting temperature ([4]; cell cycle stage: mitosis) [°C]
1 | MAQSLRLHFAARRSNTYPLSETSGDDLDSHVHMCFKRPTRISTSNVVQMKLTPRQTALAPLIKENVQSQERSSVPSSENVNKKSSCLQISLQPTRYSGYLQSSNVLADSDDASFTCILKDGIYSSAVVDNELNAVNDGHLVSSPAICSGSLSNFSTSDNGSYSSNGSDFGSCASITSGGSYTNSVISDSSSYTFPPSDDTFLGGNLPSDSTSNRSVPNRNTTPCEIFSRSTSTDPFVQDDLEHGLEIMKLPVSRNTKIPLKRYSSLVIFPRSPSTTRPTSPTSLCTLLSKGSYQTSHQFIISPSEIAHNEDGTSAKGFLSTAVNGLRLSKTICTPGEVRDIRPLHRKGSLQKKIVLSNNTPRQTVCEKSSEGYSCVSVHFTQRKAATLDCETTNGDCKPEMSEIKLNSDSEYIKLMHRTSACLPSSQNVDCQININGELERPHSQMNKNHGILRRSISLGGAYPNISCLSSLKHNCSKGGPSQLLIKFASGNEGKVDNLSRDSNRDCTNELSNSCKTRDDFLGQVDVPLYPLPTENPRLERPYTFKDFVLHPRSHKSRVKGYLRLKMTYLPKTSGSEDDNAEQAEELEPGWVVLDQPDAACHLQQQQEPSPLPPGWEERQDILGRTYYVNHESRRTQWKRPTPQDNLTDAENGNIQLQAQRAFTTRRQISEETESVDNRESSENWEIIREDEATMYSNQAFPSPPPSSNLDVPTHLAEELNARLTIFGNSAVSQPASSSNHSSRRGSLQAYTFEEQPTLPVLLPTSSGLPPGWEEKQDERGRSYYVDHNSRTTTWTKPTVQATVETSQLTSSQSSAGPQSQASTSDSGQQVTQPSEIEQGFLPKGWEVRHAPNGRPFFIDHNTKTTTWEDPRLKIPAHLRGKTSLDTSNDLGPLPPGWEERTHTDGRIFYINHNIKRTQWEDPRLENVAITGPAVPYSRDYKRKYEFFRRKLKKQNDIPNKFEMKLRRATVLEDSYRRIMGVKRADFLKARLWIEFDGEKGLDYGGVAREWFFLISKEMFNPYYGLFEYSATDNYTLQINPNSGLCNEDHLSYFKFIGRVAGMAVYHGKLLDGFFIRPFYKMMLHKPITLHDMESVDSEYYNSLRWILENDPTELDLRFIIDEELFGQTHQHELKNGGSEIVVTNKNKKEYIYLVIQWRFVNRIQKQMAAFKEGFFELIPQDLIKIFDENELELLMCGLGDVDVNDWREHTKYKNGYSANHQVIQWFWKAVLMMDSEKRIRLLQFVTGTSRVPMNGFAELYGSNGPQSFTVEQWGTPEKLPRAHTCFNRLDLPPYESFEELWDKLQMAIENTQGFDGVD [NEDD4] | -0.163 | -0.127 | -0.41 | 0.545 | 49.3 | 49.7
2 | MDPSLLRERELFKKRALSTPVVEKRSASSESSSSSSKKKKTKVEHGGSSGSKQNSDHSNGSFNLKALSGSSGYKFGVLAKIVNYMKTRHQRGDTHPLTLDEILDETQHLDIGLKQKQWLMTEALVNNPKIEVIDGKYAFKPKYNVRDKKALLRLLDQHDQRGLGGILLEDIEEALPNSQKAVKALGDQILFVNRPDKKKILFFNDKSCQFSVDEEFQKLWRSVTVDSMDEEKIEEYLKRQGISSMQESGPKKVAPIQRRKKPASQKKRRFKTHNEHLAGVLKDYSDITSSK [GTF2E2] | 0.135 | 0.797 | 1.36 | 3.1 | 48.9 | 50.2
3 | DNAJA2 | -0.191 | 0.258 | -0.554 | -2.34 | 51.7 | 51.7
4 | MLCWGNASFGQLGLGGIDEEIVLEPRKSDFFINKRVRDVGCGLRHTVFVLDDGTVYTCGCNDLGQLGHEKSRKKPEQVVALDAQNIVAVSCGEAHTLALNDKGQVYAWGLDSDGQLGLVGSEECIRVPRNIKSLSDIQIVQVACGYYHSLALSKASEVFCWGQNKYGQLGLGTDCKKQTSPQLLKSLLGIPFMQVAAGGAHSFVLTLSGAIFGWGRNKFGQLGLNDENDRYVPNLLKSLRSQKIVYICCGEDHTAALTKEGGVFTFGAGGYGQLGHNSTSHEINPRKVFELMGSIVTEIACGRQHTSAFVPSSGRIYSFGLGGNGQLGTGSTSNRKSPFTVKGNWYPYNGQCLPDIDSEEYFCVKRIFSGGDQSFSHYSSPQNCGPPDDFRCPNPTKQIWTVNEALIQKWLSYPSGRFPVEIANEIDGTFSSSGCLNGSFLAVSNDDHYRTGTRFSGVDMNAARLLFHKLIQPDHPQISQQVAASLEKNLIPKLTSSLPDVEALRFYLTLPECPLMSDSNNFTTIAIPFGTALVNLEKAPLKVLENWWSVLEPPLFLKIVELFKEVVVHLLKLYKIGIPPSERRIFNSFLHTALKVLEILHRVNEKMGQIIQYDKFYIHEVQELIDIRNDYINWVQQQAYGMDVNHGLTELADIPVTICTYPFVFDAQAKTTLLQTDAVLQMQMAIDQAHRQNVSSLFLPVIESVNPCLILVVRRENIVGDAMEVLRKTKNIDYKKPLKVIFVGEDAVDAGGVRKEFFLLIMRELLDPKYGMFRYYEDSRLIWFSDKTFEDSDLFHLIGVICGLAIYNCTIVDLHFPLALYKKLLKKKPSLDDLKELMPDVGRSMQQLLDYPEDDIEETFCLNFTITVENFGATEVKELVLNGADTAVNKQNRQEFVDAYVDYIFNKSVASLFDAFHAGFHKVCGGKVLLLFQPNELQAMVIGNTNYDWKELEKNTEYKGEYWAEHPTIKIFWEVFHELPLEKKKQFLLFLTGSDRIPILGMKSLKLVIQSTGGGEEYLPVSHTCFNLLDLPKYTEKETLRSKLIQAIDHNEGFSLI [HERC4] | -0.179 | -0.169 | -0.179 | -0.361 | 51.4 | 51
5 | MALLCYNRGCGQRFDPETNSDDACTYHPGVPVFHDALKGWSCCKRRTTDFSDFLSIVGCTKGRHNSEKPPEPVKPEVKTTEKKELCELKPKFQEHIIQAPKPVEAIKRPSPDEPMTNLELKISASLKQALDKLKLSSGNEENKKEEDNDEIKIGTSCKNGGCSKTYQGLESLEEVCVYHSGVPIFHEGMKYWSCCRRKTSDFNTFLAQEGCTKGKHMWTKKDAGKKVVPCRHDWHQTGGEVTISVYAKNSLPELSRVEANSTLLNVHIVFEGEKEFDQNVKLWGVIDVKRSYVTMTATKIEITMRKAEPMQWASLELPAAKKQEKQKDATTD [CHORDC1] | -0.122 | 0.0558 | -0.00128 | 0.22 | 52 | 52.4
6 | MELVAGCYEQVLFGFAVHPEPEACGDHEQWTLVADFTHHAHTASLSAVAVNSRFVVTGSKDETIHIYDMKKKIEHGALVHHSGTITCLKFYGNRHLISGAEDGLICIWDAKKWECLKSIKAHKGQVTFLSIHPSGKLALSVGTDKTLRTWNLVEGRSAFIKNIKQNAHIVEWSPRGEQYVVIIQNKIDIYQLDTASISGTITNEKRISSVKFLSESVLAVAGDEEVIRFFDCDSLVCLCEFKAHENRVKDMFSFEIPEHHVIVSASSDGFIKMWKLKQDKKVPPSLLCEINTNARLTCLGVWLDKVADMKESLPPAAEPSPVSKEQSKIGKKEPGDTVHKEEKRSKPNTKKRGLTGDSKKATKESGLISTKKRKMVEMLEKKRKKKKIKTMQ [PAK1IP1] | 0.614 | -1.64 | -1.32 | -5.78 | 56.5 | 53.8
7 | MSHPSWLPPKSTGEPLGHVPARMETTHSFGNPSISVSTQQPPKKFAPVVAPKPKYNPYKQPGGEGDFLPPPPPPLDDSSALPSISGNFPPPPPLDEEAFKVQGNPGGKTLEERRSSLDAEIDSLTSILADLECSSPYKPRPPQSSTGSTASPPVSTPVTGHKRMVIPNQPPLTATKKSTLKPQPAPQAGPIPVAPIGTLKPQPQPVPASYTTASTSSRPTFNVQVKSAQPSPHYMAAPSSGQIYGSGPQGYNTQPVPVSGQCPPPSTRGGMDYAYIPPPGLQPEPGYGYAPNQGRYYEGYYAAGPGYGGRNDSDPTYGQQGHPNTWKREPGYTPPGAGNQNPPGMYPVTGPKKTYITDPVSAPCAPPLQPKGGHSGQLGPSSVAPSFRPEDELEHLTKKMLYDMENPPADEYFGRCARCGENVVGEGTGCTAMDQVFHVDCFTCIICNNKLRGQPFYAVEKKAYCEPCYINTLEQCNVCSKPIMERILRATGKAYHPHCFTCVMCHRSLDGIPFTVDAGGLIHCIEDFHKKFAPRCSVCKEPIMPAPGQEETVRIVALDRDFHVHCYRCEDCGGLLSEGDNQGCYPLDGHILCKTCNSARIRVLTAKASTDL | -0.115 | 0.203 | -2.33 | -1.52 | 55.6 | 54.4
8 | MASEEASLRALESLMTEFFHDCTTNERKREIEELLNNFAQQIGAWRFCLYFLSSTRNDYVMMYSLTVFENLINKMWLGVPSQDKMEIRSCLPKLLLAHHKTLPYFIRNKLCKVIVDIGRQDWPMFYHDFFTNILQLIQSPVTTPLGLIMLKTTSEELACPREDLSVARKEELRKLLLDQVQTVLGLLTGILETVWDKHSVTAATPPPSPTSGESGDLLSNLLQSPSSAKLLNQPIPILDVESEYICSLALECLAHLFSWIPLSASITPSLLTTIFHFARFGCDIRARKMASVNGSSQNCVSGQERGRLGVLAMSCINELMSKNCVPMEFEEYLLRMFQQTFYLLQKITKDNNAHTVKSRLEELDESYIEKFTDFLRLFVSVHLRRIESYSQFPVVEFLTLLFKYTFHQPTHEGYFSCLDIWTLFLDYLTSKIKSRLGDKEAVLNRYEDALVLLLTEVLNRIQFRYNQAQLEELDDETLDDDQQTEWQRYLRQSLEVVAKVMELLPTHAFSTLFPVLQDNLEVYLGLQQFIVTSGSGHRLNITAENDCRRLHCSLRDLSSLLQAVGRLAEYFIGDVFAARFNDALTVVERLVKVTLYGSQIKLYNIETAVPSVLKPDLIDVHAQSLAALQAYSHWLAQYCSEVHRQNTQQFVTLISTTMDAITPLISTKVQDKLLLSACHLLVSLATTVRPVFLISIPAVQKVFNRITDASALRLVDKAQVLVCRALSNILLLPWPNLPENEQQWPVRSINHASLISALSRDYRNLKPSAVAPQRKMPLDDTKLIIHQTLSVLEDIVENISGESTKSRQICYQSLQESVQVSLALFPAFIHQSDVTDEMLSFFLTLFRGLRVQMGVPFTEQIIQTFLNMFTREQLAESILHEGSTGCRVVEKFLKILQVVVQEPGQVFKPFLPSIIALCMEQVYPIIAERPSPDVKAELFELLFRTLHHNWRYFFKSTVLASVQRGIAEEQMENEPQFSAIMQAFGQSFLQPDIHLFKQNLFYLETLNTKQKLYHKKIFRTAMLFQFVNVLLQVLVHKSHDLLQEEIGIAIYNMASVDFDGFFAAFLPEFLTSCDGVDANQKSVLGRNFKMDRDLPSFTQNVHRLVNDLRYYRLCNDSLPPGTVKL [XPO6] | -0.202 | -0.281 | 0.528 | 0.436 | 49.6 | 50
9 | MFLLPLPAAGRVVVRRLAVRRFGSRSLSTADMTKGLVLGIYSKEKEDDVPQFTSAGENFDKLLAGKLRETLNISGPPLKAGKTRTFYGLHQDFPSVVLVGLGKKAAGIDEQENWHEGKENIRAAVAAGCRQIQDLELSSVEVDPCGDAQAAAEGAVLGLYEYDDLKQKKKMAVSAKLYGSGDQEAWQKGVLFASGQNLARQLMETPANEMTPTRFAEIIEKNLKSASSKTEVHIRPKSWIEEQAMGSFLSVAKGSDEPPVFLEIHYKGSPNANEPPLVFVGKGITFDSGGISIKASANMDLMRADMGGAATICSAIVSAAKLNLPINIIGLAPLCENMPSGKANKPGDVVRAKNGKTIQVDNTDAEGRLILADALCYAHTFNPKVILNAATLTGAMDVALGSGATGVFTNSSWLWNKLFEASIETGDRVWRMPLFEHYTRQVVDCQLADVNNIGKYRSAGACTAAAFLKEFVTHPKWAHLDIAGVMTNKDEVPYLRKGMTGRPTRTLIEFLLRFSQDNA [LAP3] | -0.0176 | 0.187 | -5.49 | -3.93 | 53.8 | 52.6
10 | MPRVVPDQRSKFENEEFFRKLSRECEIKYTGFRDRPHEERQARFQNACRDGRSEIAFVATGTNLSLQFFPASWQGEQRQTPSREYVDLEREAGKVYLKAPMILNGVCVIWKGWIDLQRLDGMGCLEFDEERAQQEDALAQQAFEEARRRTREFEDRDRSHREEMEVRVSQLLAVTGKKTTRP [CBFB] | -0.072 | 0.199 | 0.755 | 0.955 | 49 | 51.2
